Blank lines part the entries; values can stand above or below the binder they belong to.
Legend:
[1] = molecular target: human CD28 expressed on cells (CHO-k1 stably overexpressing human CD28; T cells in functional assays) (human, UniProt P10747 19-220); test: cell-based or functional assay
[2] = molecular target: T1, huCD28-Fc, dimeric human CD28 extracellular domain fused to human IgG1 Fc (knob/hole, PG-LALA), monovalent … (human, UniProt P10747 19-152, biotin on C-terminal avi tag); test: from SPR KD values
T1 construct: also called biotinylated huCD28-Fc antigen; not shown: human IgG1 Fc fragment with hole and PG-LALA mutations; human IgG1 Fc fragment with knob and PG-LALA mutations

[3] = molecular target: T2, N(A2B2)A-avi-His (human, biotinylated avi-tag); test: SPR ProteOn, purified Fab
T2 construct: also called biotinylated N(A2B2)A-avi-His
T2 chain: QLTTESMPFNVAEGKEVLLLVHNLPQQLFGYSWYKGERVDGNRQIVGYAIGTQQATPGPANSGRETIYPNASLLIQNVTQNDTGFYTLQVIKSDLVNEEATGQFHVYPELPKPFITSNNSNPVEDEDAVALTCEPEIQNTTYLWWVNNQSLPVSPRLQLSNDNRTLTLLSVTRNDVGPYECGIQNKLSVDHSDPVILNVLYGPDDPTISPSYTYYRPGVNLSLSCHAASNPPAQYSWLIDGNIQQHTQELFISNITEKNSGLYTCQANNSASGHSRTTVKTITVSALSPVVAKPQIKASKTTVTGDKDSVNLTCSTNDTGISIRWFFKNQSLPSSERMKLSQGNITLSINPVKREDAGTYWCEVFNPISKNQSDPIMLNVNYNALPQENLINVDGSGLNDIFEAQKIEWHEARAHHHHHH

[4] = molecular target: T3, Hu N(A2-B2)A-avi-His, chimeric CEACAM1 protein with CEACAM5 domains A2 and B2 (human, biotinylated avi-tag (Example 2.2)); test: SPR ProteOn, biotinylated antigen on NLC chip
T3 construct: also called hu N(A2-B2)A-avi-His B; human CEA (A2 domain)
T3 chain: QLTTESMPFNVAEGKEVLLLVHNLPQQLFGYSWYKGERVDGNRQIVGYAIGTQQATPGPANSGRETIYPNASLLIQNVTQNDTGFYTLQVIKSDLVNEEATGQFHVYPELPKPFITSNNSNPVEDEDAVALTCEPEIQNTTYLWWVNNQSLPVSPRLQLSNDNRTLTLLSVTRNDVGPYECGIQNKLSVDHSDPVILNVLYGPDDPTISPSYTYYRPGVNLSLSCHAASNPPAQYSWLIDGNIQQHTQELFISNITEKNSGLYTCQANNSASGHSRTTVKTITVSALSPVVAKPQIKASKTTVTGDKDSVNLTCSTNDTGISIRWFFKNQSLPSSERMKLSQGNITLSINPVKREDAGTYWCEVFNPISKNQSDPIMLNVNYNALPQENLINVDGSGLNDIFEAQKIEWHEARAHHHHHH

[5] = molecular target: T2, N(A2B2)A-avi-His; test: SPR ProteOn, purified bispecific IgG
[6] = molecular target: T4, human CEA (CEACAM5) expressed on cells (MKN45; MV3 engineered to express human CEACAM5) (human, UniProt P06731 35-685); test: flow cytometry on MV3 cells expressing CEA
T4 sequence: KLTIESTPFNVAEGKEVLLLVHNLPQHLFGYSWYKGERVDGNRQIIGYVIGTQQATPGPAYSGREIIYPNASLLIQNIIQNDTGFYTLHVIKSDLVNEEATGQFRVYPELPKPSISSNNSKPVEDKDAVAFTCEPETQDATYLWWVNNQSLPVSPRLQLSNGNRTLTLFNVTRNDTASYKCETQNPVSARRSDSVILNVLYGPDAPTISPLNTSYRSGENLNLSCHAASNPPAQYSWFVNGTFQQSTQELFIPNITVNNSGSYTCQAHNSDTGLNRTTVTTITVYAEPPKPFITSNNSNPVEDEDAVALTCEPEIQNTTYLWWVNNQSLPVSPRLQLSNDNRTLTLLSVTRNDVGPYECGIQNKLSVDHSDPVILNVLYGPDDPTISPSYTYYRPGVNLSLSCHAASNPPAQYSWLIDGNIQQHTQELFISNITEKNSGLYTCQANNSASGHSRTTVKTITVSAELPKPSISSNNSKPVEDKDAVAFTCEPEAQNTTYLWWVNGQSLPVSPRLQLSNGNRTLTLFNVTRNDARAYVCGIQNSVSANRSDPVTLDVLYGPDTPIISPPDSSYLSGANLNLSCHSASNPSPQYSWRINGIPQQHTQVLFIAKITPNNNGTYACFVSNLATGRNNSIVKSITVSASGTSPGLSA

[7] = molecular target: T5, human HER3 on T-47D cells (human, UniProt P21860 20-1342); test: flow cytometry
T5 construct: also called ErbB3

Kd [4]: 0.29 nM
B3: Molecule M: CEA-CD28(SA) 1+1 format (bispecific antibody, human IgG1, kappa, L234A L235A)
light 1: not shown
heavy 1: not shown
heavy 2: QAVLTQPASLSASPGASASLTCTLRRGINVGAYSIYWYQQKPGSPPQYLLRYKSDSDKQQGSGVSSRFSASKDASANAGILLISGLQSEDEADYYCMIWHSGASAVFGGGTKLTVLSSASTKGPSVFPLAPSSKSTSGGTAALGCLVKDYFPEPVTVSWNSGALTSGVHTFPAVLQSSGLYSLSSVVTVPSSSLGTQTYICNVNHKPSNTKVDKKVEPKSCDKTHTCPPCPAPEAAGGPSVFLFPPKPKDTLMISRTPEVTCVVVDVSHEDPEVKFNWYVDGVEVHNAKTKPREEQYNSTYRVVSVLTVLHQDWLNGKEYKCKVSNKALGAPIEKTISKAKGQPREPQVCTLPPSRDELTKNQVSLSCAVKGFYPSDIAVEWESNGQPENNYKTTPPVLDSDGSFFLVSKLTVDKSRWQQGNVFSCSVMHEALHNHYTQKSLSLSP
light 2: EVQLVESGGGLVQPGRSLRLSCAASGFTVSSYWMHWVRQAPGKGLEWVGFIRNKANGGTTEYAASVKGRFTISRDDSKNTLYLQMNSLRAEDTAVYYCARDRGLRFYFDYWGQGTTVTVSSASVAAPSVFIFPPSDEQLKSGTASVVCLLNNFYPREAKVQWKVDNALQSGNSQESVTEQDSKDSTYSLSSTLTLSKADYEKHKVYACEVTHQGLSSPVTKSFNRGEC
notes: anti-CEA arm is Medi-565; also called P1AE3127

EC50 [6]: 4.1 nM
B5: Molecule 11R: CEA (P002.139)-CD28 (SA_Variant 15) 1+1 format (bispecific antibody)
heavy 1: EIVLTQSPATLSLSPGERATLSCHASSSVTYIHWYQQKPGQAPRSWIYATSNLASGIPARFSGSGSGTDFTLTISSLEPEDFAVYYCQHWSSKPPTFGQGTKLEIKSSASTKGPSVFPLAPSSKSTSGGTAALGCLVKDYFPEPVTVSWNSGALTSGVHTFPAVLQSSGLYSLSSVVTVPSSSLGTQTYICNVNHKPSNTKVDKKVEPKSCDKTHTCPPCPAPEAAGGPSVFLFPPKPKDTLMISRTPEVTCVVVDVSHEDPEVKFNWYVDGVEVHNAKTKPREEQYNSTYRVVSVLTVLHQDWLNGKEYKCKVSNKALGAPIEKTISKAKGQPREPQVCTLPPSRDELTKNQVSLSCAVKGFYPSDIAVEWESNGQPENNYKTTPPVLDSDGSFFLVSKLTVDKSRWQQGNVFSCSVMHEALHNHYTQKSLSLSP
light 1: EVQLLESGGGLVQPGGSLRLSCAASGFYFTDYAMNWVRQAPGKGLEWLGVISNKANAYTTEYSASVKGRFTISRDKSKNTLYLQMNSLRAEDTATYYCTRDRGLRFYFDYWGQGTTVTVSSASVAAPSVFIFPPSDEQLKSGTASVVCLLNNFYPREAKVQWKVDNALQSGNSQESVTEQDSKDSTYSLSSTLTLSKADYEKHKVYACEVTHQGLSSPVTKSFNRGEC
heavy 2: not shown
light 2: not shown
notes: also called P1AE8371

binding result [7]: binds
B6: Molecule 14B: HER3(lumretuzumab)-CD28 (SA_Variant 15) 1+1 format (bispecific antibody, human IgG1, kappa, L234A L235A)
heavy 1: not shown
light 1: not shown
heavy 2: DIVMTQSPDSLAVSLGERATINCKSSQSVLNSGNQKNYLTWYQQKPGQPPKLLIYWASTRESGVPDRFSGSGSGTDFTLTISSLQAEDVAVYYCQSDYSYPYTFGQGTKLEIKSSASTKGPSVFPLAPSSKSTSGGTAALGCLVKDYFPEPVTVSWNSGALTSGVHTFPAVLQSSGLYSLSSVVTVPSSSLGTQTYICNVNHKPSNTKVDKKVEPKSCDKTHTCPPCPAPEAAGGPSVFLFPPKPKDTLMISRTPEVTCVVVDVSHEDPEVKFNWYVDGVEVHNAKTKPREEQYNSTYRVVSVLTVLHQDWLNGKEYKCKVSNKALGAPIEKTISKAKGQPREPQVCTLPPSRDELTKNQVSLSCAVKGFYPSDIAVEWESNGQPENNYKTTPPVLDSDGSFFLVSKLTVDKSRWQQGNVFSCSVMHEALHNHYTQKSLSLSP
light 2: QVQLVQSGAEVKKPGASVKVSCKASGYTFRSSYISWVRQAPGQGLEWMGWIYAGTGSPSYNQKLQGRVTMTTDTSTSTAYMELRSLRSDDTAVYYCARHRDYYSNSLTYWGQGTLVTVSSASVAAPSVFIFPPSDEQLKSGTASVVCLLNNFYPREAKVQWKVDNALQSGNSQESVTEQDSKDSTYSLSSTLTLSKADYEKHKVYACEVTHQGLSSPVTKSFNRGEC
notes: also called P1AF0151; HER3-CD28

The next lines start with the binder.

B1: FAP (4B9) - CD28 (CD28(SA)_Variant 8) 1+1 (bispecific antibody, human IgG1, kappa, L234A L235A)
heavy 1: EIVLTQSPGTLSLSPGERATLSCRASQSVTSSYLAWYQQKPGQAPRLLINVGSRRATGIPDRFSGSGSGTDFTLTISRLEPEDFAVYYCQQGIMLPPTFGQGTKVEIKSSASTKGPSVFPLAPSSKSTSGGTAALGCLVKDYFPEPVTVSWNSGALTSGVHTFPAVLQSSGLYSLSSVVTVPSSSLGTQTYICNVNHKPSNTKVDKKVEPKSCDKTHTCPPCPAPEAAGGPSVFLFPPKPKDTLMISRTPEVTCVVVDVSHEDPEVKFNWYVDGVEVHNAKTKPREEQYNSTYRVVSVLTVLHQDWLNGKEYKCKVSNKALGAPIEKTISKAKGQPREPQVCTLPPSRDELTKNQVSLSCAVKGFYPSDIAVEWESNGQPENNYKTTPPVLDSDGSFFLVSKLTVDKSRWQQGNVFSCSVMHEALHNHYTQKSLSLSP
light 1: EVQLLESGGGLVQPGGSLRLSCAASGFTFSSYAMSWVRQAPGKGLEWVSAIIGSGASTYYADSVKGRFTISRDNSKNTLYLQMNSLRAEDTAVYYCAKGWFGGFNYWGQGTLVTVSSASVAAPSVFIFPPSDEQLKSGTASVVCLLNNFYPREAKVQWKVDNALQSGNSQESVTEQDSKDSTYSLSSTLTLSKADYEKHKVYACEVTHQGLSSPVTKSFNRGEC
heavy 2: not shown
light 2: not shown
notes: also called P1AE3131
EC50 killing (nM), TCB-mediated killing of MV3 target cells [1]: 2.33 nM | fold reduction of affinity compared to the parental CD28 clone [2]: ~20 fold

B2: P005.102 Fab fragment (Fab, V domains shown)
VH: EVQLLESGGGLVQPGGSLRLSCAASGFTFTDYYMNWVRQAPGKGLEWLGFIGNKANAYTTEYSASVKGRFTISRDKSKNTLYLQMNSLRAEDTATYYCTRDRGIRFQFDYWGQGTTVTVSS
VL: EIVLTQSPATLSLSPGERATLSCRASSSVTYIHWYQQKPGQAPRSWIYATSNLASGIPARFSGSGSGTDFTLTISSLEPEDFAVYYCQHWSSKSPTFGQGTKLEIK
koff [3]: 0.000392 s⁻¹

B4: CEA(P006.038-combo1)-CD28(SA_Variant 15) bispecific 1+1 IgG (bispecific antibody)
heavy 1: EIVLTQSPATLSLSPGERATLSCRASSSVTYIHWYQQKPGQAPRSWIYATSNLASGIPARFSGSGSGTDFTLTISSLEPEDFAVYYCQHWSSVPPTFGQGTKLEIKSSASTKGPSVFPLAPSSKSTSGGTAALGCLVKDYFPEPVTVSWNSGALTSGVHTFPAVLQSSGLYSLSSVVTVPSSSLGTQTYICNVNHKPSNTKVDKKVEPKSCDKTHTCPPCPAPEAAGGPSVFLFPPKPKDTLMISRTPEVTCVVVDVSHEDPEVKFNWYVDGVEVHNAKTKPREEQYNSTYRVVSVLTVLHQDWLNGKEYKCKVSNKALGAPIEKTISKAKGQPREPQVCTLPPSRDELTKNQVSLSCAVKGFYPSDIAVEWESNGQPENNYKTTPPVLDSDGSFFLVSKLTVDKSRWQQGNVFSCSVMHEALHNHYTQKSLSLSP
light 1: EVQLLESGGGLVQPGGSLRLSCAASGFYFTDYAMNWVRQAPGKGLEWLGVISNKANAYTTEYSASVKGRFTISRDKSKNTLYLQMNSLRAEDTATYYCTRDRGIRFGFDYWGQGTTVTVSSASVAAPSVFIFPPSDEQLKSGTASVVCLLNNFYPREAKVQWKVDNALQSGNSQESVTEQDSKDSTYSLSSTLTLSKADYEKHKVYACEVTHQGLSSPVTKSFNRGEC
heavy 2: not shown
light 2: not shown
koff [5]: 7.99e-05 s⁻¹
